Article PMC6151112, “Identification of MOS9 as an interaction partner for chalcone synthase in the nucleus” (PeerJ, 2018)

T1: recombinant chalcone synthase (CHS) (Arabidopsis, UniProt P13114 1-395)
T1 construct: chalcone synthase (CHS), Arabidopsis, At5g13930; The construct for recombinant CHS is not described; earlier work of the same laboratory may hold it (possibly with a carrier protein); also called recombinant CHS; source: E. coli BL21 (DE3) pLysS, purified (nickel column, FPLC)
T1 sequence (looked up): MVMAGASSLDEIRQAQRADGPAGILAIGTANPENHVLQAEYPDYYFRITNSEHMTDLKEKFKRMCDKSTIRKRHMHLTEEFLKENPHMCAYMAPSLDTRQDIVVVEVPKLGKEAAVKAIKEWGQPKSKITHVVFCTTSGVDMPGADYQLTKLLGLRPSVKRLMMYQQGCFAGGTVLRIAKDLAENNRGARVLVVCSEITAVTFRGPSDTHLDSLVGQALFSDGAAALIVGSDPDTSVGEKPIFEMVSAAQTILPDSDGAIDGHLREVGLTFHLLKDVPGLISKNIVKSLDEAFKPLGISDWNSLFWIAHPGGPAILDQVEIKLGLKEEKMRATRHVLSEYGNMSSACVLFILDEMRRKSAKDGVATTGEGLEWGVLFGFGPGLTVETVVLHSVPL


Experiments:
[1] = biological target: CHS-syfp2 fusion (Arabidopsis) (UniProt P13114); test: FRET or BRET; frequency domain FLIM-FRET in Arabidopsis tt4-11 mesophyll protoplasts; donor MOS9-scfp3a, acceptor SYFP2 fusions; E from phase-shift lifetimes
[2] = biological target: T1, recombinant chalcone synthase (CHS); test: SPR; CHS immobilised by amine coupling on a planar PEG/carboxyl chip (Reichert SR7000); MOS9 0.1-1 uM flowed over in 10 mM HEPES pH 7.5, 150 mM NaCl, 1 mg/ml BSA, 50 ul/min; KD from Koff/Kon; details: both partners purified

FRET efficiency E τ(φ) [1] [%] | Kd [2] [nM] | Molecule
6.5 | – | MOS9-scfp3a fusion (natural protein)
– | 210 | MOS9::V5::6xHis recombinant protein (natural protein, Arabidopsis, UniProt F4IDT4 1-193, looked up, MOS9, Arabidopsis, At1g12530, coding region minus the stop codon (193 amino acids), from clone pENTR221-AT1G12530, recombined into pET-DEST42; Gateway recombination leaves linker residues between MOS9 and the tags; also called At1g12530 protein; recombinant protein generated in E. coli from At1g12530 cDNA; source: E. coli BL21 (DE3) pLysS, purified (nickel column, FPLC); not shown: V5, …) MMGMARKISKEEVVEKLKDDGDFDRLRLKIIRRLKENEDLRNNMISVVKESTSLKRHGAQNMKTRQLSDAIFEEVGSKMLSQLSDGLWGIIRSEDGMKNEIRETVQSVYATLSNPRGEKRGTSAREMEHKIPTPKKEARTDFNTSPASKQKQELIKGAVEDNKGEACSDDVQDNKGEAYNDDEEDPELPPGFG
